Data reported in the supplement of paper PMC7877785.
± gives the uncertainty stated by the source.

Assay: self-splicing fitness, log relative to wild type (ln ratio); higher = more splicing; Tetrahymena group I intron in knt gene, E. coli kanamycin selection, DiMSum; sequences stand for … in CUCUCU…GGAGGGAAAAGUUAUCAGGCAUGCACCUGGUAGCUAGUCUUUAAACCAAUAGAUUGCAUCGGUUUAAAAGGCAAGACCGUCAAAUUGCGGGAAAGGGGUCAACAGCCGUUCAGUACCAAGUCUCAGGGGAAACUUUGAGAUGGCCUUGCAAAGGGUAUGGUAAUAAGCUGACGGACAUGGUCCUAACCACGCAGCCAAGUCCUAAGUCAACAGAUCUUCUGUUGAUAUGGAUGCAGUUCACAGACUAAAUGUCGGUCGGGGAAGAUGUAUUCUUCUCAUAAGAUAUAGUCGGACCUCUCCUUAAUGGGAGCUAGCGGAUGAAGUGAUGCAACACUGGAGCCGCUGGGAACUAAUUUGUAUGCGAAAGUAUAUUGAUUAGUUUUGGAGUACUCGUGGUCG
Summary of the method: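 The eight P1ex-region nucleotides of an intron in the knt kanamycin-resistance gene on pET-22b(+) were all randomised and the library put into E. coli BL21(DE3). Six replicate transformations were grown overnight at 37°C or 30°C on LB agar with or without 25 μg/mL kanamycin, together with 100 μg/mL carbenicillin, 50 μM IPTG and 0.2% rhamnose. Colonies were pooled and amplicon-sequenced on an Illumina HiSeq 2500. Fitness from DiMSum is the error-weighted combination of wild-type-normalised replicate fold changes, kanamycin over none.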

CUCAAGCAAUAUUACGUCUU
self-splicing fitness (ln) (30 °C): -3.42 ± 0.21
self-splicing fitness (ln) (37 °C): -2.06 ± 0.16

CUCAAGCAAUAUUACGUGGG
self-splicing fitness (ln) (30 °C): -4.05 ± 0.17
self-splicing fitness (ln) (37 °C): -2.85 ± 0.15

CUCAAGCAAUAUUACGUUCG
self-splicing fitness (ln) (30 °C): -3.18 ± 0.18
self-splicing fitness (ln) (37 °C): -3 ± 0.26

CUCAAGCAAUAUUACGUUGU
self-splicing fitness (ln) (30 °C): -3.9 ± 0.36
self-splicing fitness (ln) (37 °C): -2.89 ± 0.23

CUCCAGCAAUAUUACGAAGU
self-splicing fitness (ln) (30 °C): -3.59 ± 0.16
self-splicing fitness (ln) (37 °C): -2.98 ± 0.26

CUCCAGCAAUAUUACGAAUU
self-splicing fitness (ln) (30 °C): -3.27 ± 0.18
self-splicing fitness (ln) (37 °C): -2.18 ± 0.2

CUCCAGCAAUAUUACGCAAC
self-splicing fitness (ln) (30 °C): -3.98 ± 0.43
self-splicing fitness (ln) (37 °C): -3.13 ± 0.42

CUCCAGCAAUAUUACGCGAA
self-splicing fitness (ln) (30 °C): -3.06 ± 0.14
self-splicing fitness (ln) (37 °C): -1.77 ± 0.16

CUCCAGCAAUAUUACGCGAU
self-splicing fitness (ln) (30 °C): -3.55 ± 0.13
self-splicing fitness (ln) (37 °C): -2.24 ± 0.14

CUCCAGCAAUAUUACGCUCU
self-splicing fitness (ln) (30 °C): -3.59 ± 0.31
self-splicing fitness (ln) (37 °C): -3.04 ± 0.34

CUCCAGCAAUAUUACGGAUA
self-splicing fitness (ln) (30 °C): -1.82 ± 0.11
self-splicing fitness (ln) (37 °C): -0.962 ± 0.1

CUCCAGCAAUAUUACGGGUA
self-splicing fitness (ln) (30 °C): -1.35 ± 0.067
self-splicing fitness (ln) (37 °C): -1.11 ± 0.08

CUCCAGCAAUAUUACGGGUG
self-splicing fitness (ln) (30 °C): -2.79 ± 0.097
self-splicing fitness (ln) (37 °C): -1.53 ± 0.088

CUCCAGCAAUAUUACGGUGC
self-splicing fitness (ln) (30 °C): -2.92 ± 0.17
self-splicing fitness (ln) (37 °C): -2.27 ± 0.24

CUCCAGCAAUAUUACGGUUG
self-splicing fitness (ln) (30 °C): -2.69 ± 0.097
self-splicing fitness (ln) (37 °C): -1.01 ± 0.12

CUCCAGCAAUAUUACGUACG
self-splicing fitness (ln) (30 °C): -1.82 ± 0.11
self-splicing fitness (ln) (37 °C): -0.463 ± 0.12

CUCCAGCAAUAUUACGUAGU
self-splicing fitness (ln) (30 °C): -3.75 ± 0.19
self-splicing fitness (ln) (37 °C): -2.89 ± 0.22

CUCCAGCAAUAUUACGUAUA
self-splicing fitness (ln) (30 °C): -3.54 ± 0.23
self-splicing fitness (ln) (37 °C): -0.63 ± 0.16

CUCCAGCAAUAUUACGUCUG
self-splicing fitness (ln) (30 °C): -3.51 ± 0.17
self-splicing fitness (ln) (37 °C): -2.54 ± 0.18

CUCGAGCAAUAUUACGAAAA
self-splicing fitness (ln) (30 °C): -1.93 ± 0.44

CUCGAGCAAUAUUACGAAGG
self-splicing fitness (ln) (30 °C): -2.2 ± 0.27
self-splicing fitness (ln) (37 °C): -1.38 ± 0.41

CUCGAGCAAUAUUACGACCA
self-splicing fitness (ln) (30 °C): -3.07 ± 0.26
self-splicing fitness (ln) (37 °C): -2.22 ± 0.49

CUCGAGCAAUAUUACGACCU
self-splicing fitness (ln) (30 °C): -3.42 ± 0.25
self-splicing fitness (ln) (37 °C): -3.53 ± 0.37

CUCGAGCAAUAUUACGACUA
self-splicing fitness (ln) (30 °C): -3.02 ± 0.33
self-splicing fitness (ln) (37 °C): -0.507 ± 0.21

CUCGAGCAAUAUUACGAGUG
self-splicing fitness (ln) (30 °C): -1.7 ± 0.1
self-splicing fitness (ln) (37 °C): -1.47 ± 0.12

CUCGAGCAAUAUUACGAUAU
self-splicing fitness (ln) (30 °C): -4.2 ± 0.31
self-splicing fitness (ln) (37 °C): -1.91 ± 0.25

CUCGAGCAAUAUUACGAUCU
self-splicing fitness (ln) (30 °C): -3.58 ± 0.25
self-splicing fitness (ln) (37 °C): -3.53 ± 0.26

CUCGAGCAAUAUUACGAUUU
self-splicing fitness (ln) (30 °C): -3.73 ± 0.2
self-splicing fitness (ln) (37 °C): -2.91 ± 0.21

CUCGAGCAAUAUUACGCACA
self-splicing fitness (ln) (30 °C): -4.64 ± 0.3
self-splicing fitness (ln) (37 °C): -1.94 ± 0.19

CUCGAGCAAUAUUACGCAUC
self-splicing fitness (ln) (30 °C): -3.3 ± 0.22
self-splicing fitness (ln) (37 °C): -2.49 ± 0.3

CUCGAGCAAUAUUACGCAUU
self-splicing fitness (ln) (30 °C): -3.59 ± 0.3

CUCGAGCAAUAUUACGCUAG
self-splicing fitness (ln) (30 °C): -4.42 ± 0.39
self-splicing fitness (ln) (37 °C): -2.52 ± 0.32

CUCGAGCAAUAUUACGGAAG
self-splicing fitness (ln) (30 °C): -3.56 ± 0.2
self-splicing fitness (ln) (37 °C): -1.32 ± 0.13

CUCGAGCAAUAUUACGGAAU
self-splicing fitness (ln) (30 °C): -3.24 ± 0.2
self-splicing fitness (ln) (37 °C): -3.23 ± 0.38

CUCGAGCAAUAUUACGGACC
self-splicing fitness (ln) (30 °C): -3.81 ± 0.37
self-splicing fitness (ln) (37 °C): -2.52 ± 0.41

CUCGAGCAAUAUUACGGCAA
self-splicing fitness (ln) (30 °C): -1.82 ± 0.32
self-splicing fitness (ln) (37 °C): -2.31 ± 0.27

CUCGAGCAAUAUUACGGCAC
self-splicing fitness (ln) (30 °C): -3.63 ± 0.25
self-splicing fitness (ln) (37 °C): -2.16 ± 0.36

CUCGAGCAAUAUUACGGCAG
self-splicing fitness (ln) (30 °C): -1.71 ± 0.13
self-splicing fitness (ln) (37 °C): -1.03 ± 0.15

CUCGAGCAAUAUUACGGCAU
self-splicing fitness (ln) (30 °C): -2.71 ± 0.19
self-splicing fitness (ln) (37 °C): -3.09 ± 0.37

CUCGAGCAAUAUUACGGCGG
self-splicing fitness (ln) (30 °C): -1.2 ± 0.12
self-splicing fitness (ln) (37 °C): -0.858 ± 0.2

CUCGAGCAAUAUUACGGGGC
self-splicing fitness (ln) (30 °C): -3.41 ± 0.18
self-splicing fitness (ln) (37 °C): -1.51 ± 0.16

CUCGAGCAAUAUUACGGUCU
self-splicing fitness (ln) (30 °C): -3.02 ± 0.15
self-splicing fitness (ln) (37 °C): -2.11 ± 0.17

CUCGAGCAAUAUUACGGUUG
self-splicing fitness (ln) (30 °C): -3.73 ± 0.13
self-splicing fitness (ln) (37 °C): -2.07 ± 0.13

CUCGAGCAAUAUUACGUACC
self-splicing fitness (ln) (30 °C): -2.32 ± 0.26
self-splicing fitness (ln) (37 °C): -0.911 ± 0.39

CUCGAGCAAUAUUACGUCCG
self-splicing fitness (ln) (30 °C): -3.41 ± 0.18
self-splicing fitness (ln) (37 °C): -3.68 ± 0.42

CUCGAGCAAUAUUACGUCUA
self-splicing fitness (ln) (30 °C): -1.79 ± 0.24
self-splicing fitness (ln) (37 °C): -2.43 ± 0.31

CUCGAGCAAUAUUACGUGUG
self-splicing fitness (ln) (30 °C): -2.74 ± 0.12
self-splicing fitness (ln) (37 °C): -1.27 ± 0.095

CUCGAGCAAUAUUACGUUAC
self-splicing fitness (ln) (37 °C): -2.22 ± 0.43

CUCUAGCAAUAUUACGAAGG
self-splicing fitness (ln) (30 °C): -2.01 ± 0.38
self-splicing fitness (ln) (37 °C): -1.16 ± 0.32

CUCUAGCAAUAUUACGAAUC
self-splicing fitness (ln) (37 °C): -3.69 ± 0.39

CUCUAGCAAUAUUACGACAC
self-splicing fitness (ln) (37 °C): -2.49 ± 0.25

CUCUAGCAAUAUUACGAUGG
self-splicing fitness (ln) (30 °C): -3.61 ± 0.19
self-splicing fitness (ln) (37 °C): -1.91 ± 0.14

CUCUAGCAAUAUUACGCACG
self-splicing fitness (ln) (30 °C): -2.45 ± 0.17
self-splicing fitness (ln) (37 °C): -1.95 ± 0.23

CUCUAGCAAUAUUACGCCGU
self-splicing fitness (ln) (30 °C): -2.12 ± 0.27
self-splicing fitness (ln) (37 °C): -3.98 ± 0.39

CUCUAGCAAUAUUACGCCUU
self-splicing fitness (ln) (30 °C): -1.58 ± 0.18

CUCUAGCAAUAUUACGCUCC
self-splicing fitness (ln) (37 °C): -1.03 ± 0.36

CUCUAGCAAUAUUACGCUUC
self-splicing fitness (ln) (30 °C): -2.62 ± 0.27
self-splicing fitness (ln) (37 °C): -2.39 ± 0.34

CUCUAGCAAUAUUACGGAGU
self-splicing fitness (ln) (30 °C): -3.04 ± 0.29
self-splicing fitness (ln) (37 °C): -2.61 ± 0.25

CUCUAGCAAUAUUACGGUGG
self-splicing fitness (ln) (30 °C): -2.88 ± 0.15
self-splicing fitness (ln) (37 °C): -2.48 ± 0.21

CUCUAGCAAUAUUACGUAGU
self-splicing fitness (ln) (30 °C): -4.1 ± 0.26
self-splicing fitness (ln) (37 °C): -4.45 ± 0.36

CUCUAGCAAUAUUACGUCUA
self-splicing fitness (ln) (30 °C): -2.31 ± 0.25
self-splicing fitness (ln) (37 °C): -2.88 ± 0.24

CUCUAGCAAUAUUACGUGAA
self-splicing fitness (ln) (30 °C): -3.77 ± 0.21
self-splicing fitness (ln) (37 °C): -3.07 ± 0.25

CUCUAGCAAUAUUACGUGAC
self-splicing fitness (ln) (30 °C): -4.2 ± 0.26
self-splicing fitness (ln) (37 °C): -1.68 ± 0.17

CUCUAGCAAUAUUACGUGCG
self-splicing fitness (ln) (30 °C): -2.61 ± 0.22
self-splicing fitness (ln) (37 °C): -3.7 ± 0.3

CUCUAGCAAUAUUACGUUAU
self-splicing fitness (ln) (30 °C): -3.92 ± 0.4
self-splicing fitness (ln) (37 °C): -2.16 ± 0.25

CUGAAGCAAUAUUACGAAGG
self-splicing fitness (ln) (30 °C): -0.457 ± 0.093
self-splicing fitness (ln) (37 °C): -1.38 ± 0.14

CUGAAGCAAUAUUACGACUA
self-splicing fitness (ln) (30 °C): -1.29 ± 0.16
self-splicing fitness (ln) (37 °C): -0.875 ± 0.21

CUGAAGCAAUAUUACGAUAC
self-splicing fitness (ln) (30 °C): -2.44 ± 0.32
self-splicing fitness (ln) (37 °C): -1.94 ± 0.36

CUGAAGCAAUAUUACGAUCU
self-splicing fitness (ln) (30 °C): -3.3 ± 0.16
self-splicing fitness (ln) (37 °C): -3.2 ± 0.28

CUGAAGCAAUAUUACGAUGC
self-splicing fitness (ln) (30 °C): -3.46 ± 0.21
self-splicing fitness (ln) (37 °C): -2.86 ± 0.33

CUGAAGCAAUAUUACGCAAC
self-splicing fitness (ln) (37 °C): -2.22 ± 0.35

CUGAAGCAAUAUUACGCAUG
self-splicing fitness (ln) (30 °C): -0.485 ± 0.063
self-splicing fitness (ln) (37 °C): 0.071 ± 0.1

CUGAAGCAAUAUUACGCCCA
self-splicing fitness (ln) (30 °C): -2.13 ± 0.34

CUGAAGCAAUAUUACGCCCG
self-splicing fitness (ln) (30 °C): -0.0662 ± 0.23
self-splicing fitness (ln) (37 °C): 0.309 ± 0.24

CUGAAGCAAUAUUACGCCCU
self-splicing fitness (ln) (30 °C): -3.03 ± 0.22
self-splicing fitness (ln) (37 °C): -2.86 ± 0.47

CUGAAGCAAUAUUACGCCGA
self-splicing fitness (ln) (30 °C): -1.44 ± 0.22

CUGAAGCAAUAUUACGCGAA
self-splicing fitness (ln) (30 °C): -3.12 ± 0.32
self-splicing fitness (ln) (37 °C): -0.319 ± 0.18

CUGAAGCAAUAUUACGCGCU
self-splicing fitness (ln) (30 °C): -3.35 ± 0.29

CUGAAGCAAUAUUACGCUUU
self-splicing fitness (ln) (30 °C): -3.4 ± 0.31
self-splicing fitness (ln) (37 °C): -3.78 ± 0.42
